Ends that are not written are not given here.
What was measured:
[1] = target: T1, protein kinase C (PKC) peptide FTRHPPVLTPPDQEVI test bait (rat, also: fused to LexA DNA binding domain (order, linker not given here)); assay: yeast two hybrid mating test with negative control baits
T1 construct: Negative control bait in the two hybrid mating test; also called peptide derived from rat protein kinase Cβ2
T1 chain: FTRHPPVLTPPDQEVI

[2] = target: T2, small GTP-binding protein RhoB test bait (UniProt P62745 1-196, limits assumed); assay: as above
T2 construct: Negative control bait in the two hybrid mating test

[3] = target: T3, LexA-MB1 fusion protein (human c-Myc Myc box 1 peptide, amino acids 47-62) (human); assay: yeast two hybrid, mating test with LexA baits
T3 construct: also called MB1 bait; lexA-MB1 peptide construct

[4] = target: small GTP-binding protein RhoB (tested for GST-ATG99 interaction) (UniProt P62745 1-196, limits assumed); assay: GST pull-down
Max = Max (UniProt P61244 1-160, limits assumed); assay: GST pull-down
[5] = target: extracellular protein PAI-1 (UniProt P05121 24-402, limits assumed); assay: GST pull-down
cell cycle protein p107 = target: T4, cell cycle protein p107 (UniProt P28749 1-1068, limits assumed); assay: GST pull-down
T4 sequence (looked up): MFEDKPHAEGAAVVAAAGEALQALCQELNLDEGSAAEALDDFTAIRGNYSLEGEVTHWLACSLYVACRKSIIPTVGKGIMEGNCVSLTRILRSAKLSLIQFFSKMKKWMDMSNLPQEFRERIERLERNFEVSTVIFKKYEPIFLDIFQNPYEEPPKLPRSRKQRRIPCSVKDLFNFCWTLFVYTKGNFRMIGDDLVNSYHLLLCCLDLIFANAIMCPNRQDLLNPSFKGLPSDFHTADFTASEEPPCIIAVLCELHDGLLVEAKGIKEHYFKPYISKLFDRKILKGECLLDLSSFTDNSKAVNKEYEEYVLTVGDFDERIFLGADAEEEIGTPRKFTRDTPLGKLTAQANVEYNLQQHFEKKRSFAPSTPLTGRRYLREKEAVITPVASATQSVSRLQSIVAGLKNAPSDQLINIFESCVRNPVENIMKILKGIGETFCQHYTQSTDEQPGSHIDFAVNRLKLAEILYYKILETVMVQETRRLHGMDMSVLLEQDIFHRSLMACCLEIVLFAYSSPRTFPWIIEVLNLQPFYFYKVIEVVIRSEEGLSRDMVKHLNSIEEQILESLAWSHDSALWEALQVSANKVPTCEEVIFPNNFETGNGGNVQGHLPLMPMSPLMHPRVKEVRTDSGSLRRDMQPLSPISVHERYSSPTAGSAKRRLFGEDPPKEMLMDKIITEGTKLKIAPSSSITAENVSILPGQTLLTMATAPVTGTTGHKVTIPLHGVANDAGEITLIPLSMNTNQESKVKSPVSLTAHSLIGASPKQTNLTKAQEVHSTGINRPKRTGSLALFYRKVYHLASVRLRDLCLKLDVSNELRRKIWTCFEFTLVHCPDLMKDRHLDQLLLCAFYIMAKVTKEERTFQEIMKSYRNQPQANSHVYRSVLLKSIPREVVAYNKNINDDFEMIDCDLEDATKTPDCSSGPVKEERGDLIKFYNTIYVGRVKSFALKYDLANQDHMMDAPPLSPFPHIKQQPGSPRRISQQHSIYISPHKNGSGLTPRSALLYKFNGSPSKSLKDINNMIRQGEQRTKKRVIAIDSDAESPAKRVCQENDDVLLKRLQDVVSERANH

[6] = target: transcription factor YY 1 (UniProt P25490 1-414, limits assumed); assay: GST pull-down
[7] = target: T5, SV40 large T antigen (vector pTag) (SV40, UniProt P03070 1-708); assay: GST pull-down of 35S-labelled IVT protein
T5 construct: 35S-labelled in vitro translated protein

[8] = target: T6, c-Myc with both MB1 (49-101) and MB2 (120-140) deletions (human, UniProt P01106 1-48; P01106 102-119; P01106 141-439); assay: GST pull-down of 35S-labelled IVT protein
T6 construct: range 1-48; also called CMV Hm subclone containing both deletions

USF (vector CMV-USF) = target: T7, USF (vector CMV-USF) (UniProt P22415 1-310, limits assumed); assay: GST pull-down of 35S-labelled IVT protein
T7 construct: 35S-labelled in vitro translated protein

Measured: binding result

Chain of transcription factor YY 1 (P25490 whole entry): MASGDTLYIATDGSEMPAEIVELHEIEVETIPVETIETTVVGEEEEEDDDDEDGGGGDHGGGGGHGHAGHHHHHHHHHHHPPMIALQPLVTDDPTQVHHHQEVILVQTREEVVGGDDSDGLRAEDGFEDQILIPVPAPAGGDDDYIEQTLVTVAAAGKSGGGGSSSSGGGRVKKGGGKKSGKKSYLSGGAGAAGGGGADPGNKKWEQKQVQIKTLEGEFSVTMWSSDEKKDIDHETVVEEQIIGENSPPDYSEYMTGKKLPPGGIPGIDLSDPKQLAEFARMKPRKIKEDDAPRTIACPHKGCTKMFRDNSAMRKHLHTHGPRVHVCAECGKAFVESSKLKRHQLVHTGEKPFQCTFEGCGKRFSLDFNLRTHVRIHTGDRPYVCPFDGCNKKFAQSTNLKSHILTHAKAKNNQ
T7 sequence (P22415 whole entry): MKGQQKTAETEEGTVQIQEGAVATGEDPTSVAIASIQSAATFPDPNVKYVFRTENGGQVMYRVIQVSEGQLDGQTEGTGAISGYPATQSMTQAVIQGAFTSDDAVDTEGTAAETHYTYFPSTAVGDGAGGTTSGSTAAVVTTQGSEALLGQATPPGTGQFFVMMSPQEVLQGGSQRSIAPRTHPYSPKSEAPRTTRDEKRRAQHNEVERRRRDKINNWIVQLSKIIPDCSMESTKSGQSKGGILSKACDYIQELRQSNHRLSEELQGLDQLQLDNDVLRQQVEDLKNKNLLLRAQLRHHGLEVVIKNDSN
Chain of Max (P61244 whole entry): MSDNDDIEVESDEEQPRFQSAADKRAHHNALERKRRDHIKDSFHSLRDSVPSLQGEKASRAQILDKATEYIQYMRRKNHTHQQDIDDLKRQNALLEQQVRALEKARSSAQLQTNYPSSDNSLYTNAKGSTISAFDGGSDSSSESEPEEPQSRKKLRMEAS
Chain of extracellular protein PAI-1 (P05121 24-402 limits assumed): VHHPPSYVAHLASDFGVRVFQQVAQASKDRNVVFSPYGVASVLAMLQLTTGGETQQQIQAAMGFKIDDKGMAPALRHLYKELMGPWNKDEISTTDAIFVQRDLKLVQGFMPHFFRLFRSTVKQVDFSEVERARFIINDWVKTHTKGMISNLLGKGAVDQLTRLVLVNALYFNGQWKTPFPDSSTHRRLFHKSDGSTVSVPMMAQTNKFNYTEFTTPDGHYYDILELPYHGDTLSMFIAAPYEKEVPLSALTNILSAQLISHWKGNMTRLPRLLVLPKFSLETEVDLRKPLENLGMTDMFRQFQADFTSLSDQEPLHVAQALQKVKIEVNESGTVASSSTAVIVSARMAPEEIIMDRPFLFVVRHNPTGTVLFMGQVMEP
T6 sequence (P01106 other isoform, or with tags, fused parts or gaps limits assumed): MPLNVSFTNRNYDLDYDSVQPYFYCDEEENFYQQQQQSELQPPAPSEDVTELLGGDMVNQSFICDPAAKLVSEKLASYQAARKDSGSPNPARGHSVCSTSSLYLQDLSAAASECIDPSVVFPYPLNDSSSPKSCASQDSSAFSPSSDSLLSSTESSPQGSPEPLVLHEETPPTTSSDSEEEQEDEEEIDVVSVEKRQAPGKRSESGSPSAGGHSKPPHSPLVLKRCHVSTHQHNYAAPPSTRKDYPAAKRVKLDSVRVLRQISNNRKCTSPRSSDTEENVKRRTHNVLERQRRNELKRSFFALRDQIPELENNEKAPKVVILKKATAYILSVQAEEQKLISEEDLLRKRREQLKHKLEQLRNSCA
T2 sequence (P62745 whole entry): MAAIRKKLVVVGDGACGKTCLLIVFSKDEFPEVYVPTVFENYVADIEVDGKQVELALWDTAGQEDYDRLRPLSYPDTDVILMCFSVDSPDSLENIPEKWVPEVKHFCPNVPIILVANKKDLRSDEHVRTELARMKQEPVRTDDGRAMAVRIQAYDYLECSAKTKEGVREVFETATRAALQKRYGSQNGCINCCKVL
Chain of small GTP-binding protein RhoB (tested for GST-ATG99 interaction) (P62745 whole entry): as above

B1: murine Bin1 135 amino acid polypeptide (clone #99 ORF) as VP16 fusion from the two hybrid cDNA library (other)
chain: EIRVNHEPEPASGASPGAAIPKSPSQPAEASEVVGGAQEPGETAASEATSSSLPAVVVETFSATVNGAVEGSAGTGRLDLPPGFMFKVQAQHDYTATDTDELQLKAGDVVLVIPFQNPEEQDEGWLMGVKESD
notes: Prey of the yeast two hybrid screen
binds: [3]
no binding: [1] | [2]

B2: GST-ATG99 polypeptide (glutathione-S-transferase fusion of the 135 aa murine Bin1 polypeptide) (other)
chain: B1 chain
notes: Expressed in E. coli, purified on glutathione-Sepharose; not shown: glutathione-S-transferase of vector pGEX-2T (Pharmacia); 15 amino acid N-terminal extension with initiator methionine (3 amino acids from E47 and 12 amino acids from VP16); lett
not listed: [1] | [2] | [3]
no binding: all other assays above

Reference: patent publication US20030166021A1 (WISTAR INSTITUTE OF ANATOMY AND BIOLOGY, published 2003)
